From the DeepSol protein solubility set

Assay: soluble on expression in E. coli; label from the status in PepcDB or PDB records

Sequence | soluble on expression in E. coli
MSLRVIDSHTAGEPTRVVLDGGPDLGSGTLAERAARLEAEHLDFCASVMLEPRGHDAIIGALLVPPSDPACAAGVIYFNNLQNLGMCGHATIGLGVTLAHLGRIRPGRHRFETPVGVVEIDLIDANTVSVVNIESYRLAKDVTVEVEGVGPVTGDVAWGGNWFFMVKNSPIALTGANIRPLTDLTLKIRTALEKAGVTGKDGAWIDHIELFGPAEDPAAQSRNFVLCPGGAYDRSPCGTGCSAKMACLAADGALAPGQDYLQESVIGSTYKISYQPGPGGGVIPTITGQAFVTSDATLIFNPADPYRSGIRLEGHHHHHH | soluble
MSLKVVSLLTDFGDFYPGVMKGVILSLAPEARIVDITHSVEPQNILQGAFLLYHSFRYFRNAVHVAVVDPGVGSERRALVIEGKNHFFVGPDNGILYPSAVEDGIKAAYSIKEEISELVGELSSTFHGRDIFAPAAAMVVRGDYTYFEEINKEELEKLELFDCSIQGNKVRCRVVYVDRFGNVVTNLREVKGKGFYFRGVEFPFVKTYSDVDVGKPLSLIGSFGTLELSVREGSAAEMLGIKRGGGWIELEVLEGGSHHHHHH | soluble
MSLTASAPRRPAAFLDRDGVINYNDHYVGTRERLRWMPGIAAAIRQLNAAGYYVFIITNQSGVARGMFSEDDVRALHRWMLDELNTQGARIDDVRFCPHHVEGTLDAYRVACEHRKPGPGMILDLAKTWPVDMTRSFVIGDSASDVEAAKAAGIPGFRFEGEDIDVFVKQVLIEMQRAAVSNEGHHHHHH | soluble
MSLNNVKLLIAGSAFFAMSAQAADRVSIDVKVTLEAAACTPILSNGGVVNFGSHSVNRLSTQHYTQIGTRNINMTITCESATGIAITARDTRMDSMTTGKDSGGQSGVKYTLNGGGYISQTTRLFGLGKTKDNKNIGSYAVLIDSNNISASNGSQTLAVSIAGADAVITGQKRAWQTLTAYPLAVDQSYYYTFVKPGETTPTPVTNAIIPLQVSASIANDLGGSEKIELDGKAVISVVYLEGHHHHHH | not soluble
MFDYTDFPEQRQSKIRLILSEEGKVVCTQLSRELNVSEHTIRRDLKELAQSGACKRVYGGAVSLPPEAIDFASRATIDAAQKDRIAQAVIPLIKPNGCVFFDTGTTNLAVAKQIPAGLKFTAVCNSPIIAAELMQHQDVEVIVLGGRIQKEVGGAIGIDTLRQLEKMYFDQCLLGGCAFDANEGLTVFEYDDAEFKKCLVTRSSEVIVALTANKISALTRYRVAECDEITTLVTDDEISPASQSVLKEKNLDVIIARLEHHHHHH | soluble
MKIVSIKIKNYRVFEDIKITNIPSFCVIIGANGTGKSTLFDVFGFLRDALKNNIRQALQIRGGFKEVVTRGKESEDIEIELKFRMEILATERLVTYILIIGQEGKKPVIKREILRYKRGEYGSPFHFLDFHNGQGYAIRNEESFESDEELEREEQKLESADILAIKGLGQFQRFKAANAIRSLIENWHVSDFHISDARGSKAALYAEHLSPTGDNIPIVAQYIYQEHPEIFAEILQRMKQRVPGISNVEAKEIEGGSLILKFQDQAFEDSFVDLYVSDGTIKMFAYLILLFDPKPHPLLCVEEPENQLYPTLLRELAEEFASYAHRGGQVFVSTHSPDFLNAVPLDSIFWLIKIQGVTKVEKAADHEVLRNLIAAGDLPGYLWNQGWFEGVAPLEHHHHHH | not soluble
MGSDKIHHHHHHMEIGLIDIKGTLPCFENFGNLPTKIIHENNISKIKDLEMLIIPGGSIVESGSFTDEFKKQILDFDNYIVGICSGFQILSEKIDIGRKSPIPIIKEGLGLLNVEFSPLICTDLVKFNIENDNLFGKKNQLGHGFHCHTYGNIEITNNSTKIWTTSEIEKLNYKMVGKQNILSGVFKNKVYGTMVHNLLDNDFVVENFLKNMKIKDDEKQEIFKKNSILKEKLKDRSKISENFKKIESNDKKGIILLATGSESGKTFLSTSICSKLKGKTFVSKIGPDVRDIVPSLYLLREPMTKFSSIKLSDRGWSEPSEFLEFVKNSKFNNYIIEGVMGAFTGALNKKNYSGSEVSKILGFPVYIISSCSKTGIEGSFVECMAYHSLLKEMGVNVAGIVLNRVYNAELLEKVKKIANDLNIDLIGVNKLNVNVDNKRGLIPEVEIDYEEFCNATMKLDFEIDIPKINPEKINEDSKTFEEYLKIWSEKLININ | not soluble
MAHQTGIHATEELKEFFAKARAGSVRLIKVVIEDEQLVLGASQEPVGRWDQDYDRAVLPLLDAQQPCYLLYRLDSQNAQGFEWLFLAWSPDNSPVRLKMLYAATRATVKKEFGGGHIKDELFGTVKDDLSFAGYQKHLSSCAAPAPLTSAERELQQIRINEVKTEISVESKHQTLQGLAFPLQPEAQRALQQLKQKMVNYIQMKLDLERETIELVHTEPTDVAQLPSRVPRDAARYHFFLYKHTHEGDPLESVVFIYSMPGYKCSIKERMLYSSCKSRLLDSVEQDFHLEIAKKIEIGDGAELTAEFLYDEVHPKQHAFKQAFAKPKGPGGKRGHKRLIRGPGENGDDS | soluble
MINLRWPLNWLKLQSSHGQRLNSQLNLIHSRKWIDFDEQIVGTWKLASSENCPNFIEWFGIEKKKSNYGYYNDLTQAKLNENLVFKMNYNNIVGIPKLFPHMSEKTVRENRHIKTTDDRSLKLTIDRYIDMGKLNVTMELKVNEGKHVCTCKLVYDRVYY | not soluble
MKKFLALLLSVIIVFSLTACGGKNSGNNSNNSSNNNSSNNTGGKKIKIGMVTDVGGVNDGSFNQSAWEGLQRAQKELGVEVRYAESATDADYAPNIEAFIDEGYDLIICVGYMLADATRKAAEANPNQKFAIIDDASIDLPNVTCLMFEQSQASYLVGLVAGKMTKTNKVGFVVGMVSQTMNEFGYGYLAGVKDANPNATILQFNANSFSSTETGKSAATTMITNGADVIFHAAGGTGLGVIEGCKDAGKWAIGVDSDQSPLAPENILTSAMKRVDNACFDIAKAVKEGNVKPGIITYDLKSAGVDIAPTTTNLPKEVLDYVNQAKQDIINGKITVPKTKAEFEAKYGNIYELDD | soluble
MRVVAEDLWFPEGPVWVGDGSLLVVEIRRKTLTRIFPDGRKHIVAELGGGPNGAAMGPDGYCYVANNGGFAFRQREDGRWVTSGTPEDYRTGRIERVDIETGKVEVLYDRIDGRNIRGPNDLVIDAAGGIWFTDPGKTRHRDWDRGSICYATIDGSHIEEKVFPIHKPNGIGLSPDGRTLYVAETETARLWAWDLAGPGRLAAPAAASPASPHGSRLAYASPVYQRFDSLAVQADGAVAIGTLDRGGITTVRPDGSASFVPVAGDTHITNLCFGGEGMRKAYVTQSYAGRLVEIDWASPGLRLFEILEHHHHHH | not soluble
QVQLQQSGAELVRPGVSVKISCKGSGYTFTDYGMHWVKQSHAKSLEWIGIISTYSGDASYNQKFKGKATMTVDKSSSTAYMELARLTSEDSAIYYCARSSTWYYFDYWGQGTTLTVSSAKTTAPSVYPLAPVCGDTTGSSVTLGCLVKGYFPEPVTLTWNSGSLSSGVHTFPAVLQSDLYTLSSSVTVTSSTWPSQSITCNVAHPASSTKVDKKIEPR | soluble
MDDVLDRIMGSAPSQSGSSLNRTPKRDHRSNPDMHEPSSKRSAPMFTTPKSATPIGRDSFATLDTLNVQMNMFTMDIKDMPHKLQRLQVDVIICSSNGKQINVNLGVLAAKGDVNSHNRRLAQFFIMRAVHDKLPEKFSGKSHHFLAYDCAATLYVPEGVYTGDAEEQVTLKIDDFPKDEWKIVSKLSRRKDDSYLVTLKPAGFVHTQGEHARAEANRMELTRCVEIITSQMLNNEDYYQFANCPNREAVAVDEVVTAEASPEIHVEVTVAAVLIQEIIVEVTATEVERYRDESRGCRDMNDSRRDSSNGVDYSPSDAAEVEKALGERGSTKRFIEDALKGLDVECTRLKGNLIRVCSIAENNAENTSFMMKGDKGEQEITVVQYFQLQYNIKLKHSRLPLVVSKRFKHESFFPMELLQIAPGQRIKVNKMSPTVQSSMTGMNASMPEQHVKLVQNILIDNLKLKQSKYMDAFGIRLMSTKPLQLPAKLLPPAQIKFKNQTYMPEMSRPAFRTQDKFVQPAHIGRIGVVVFDNCIQMRQAESFCDNLAAICRDNGIKIDQDSRDWTICEINSSDAAGIQNRMRKWADDKVDILFAITREKKPDVHDILKYYEESIGLQTIQVCQQTVDKMMGGGGGRQTIDNVMRKFNLKCGGTNFFDEIPSSVRGRAVCSNSETLSKKLFEHVQFIGFEISHGAARTLFDRSRSQLDGEPSVVGVSYSLTNSTQLGGFTYLQTQKEYKLQKLGEVFPKCVQSYKEHSRRLPTRIVIYRVGAGEGDFKRVKEEIEEIRGTFDKIQPGYRPHLVVVIAQIASHARVFPSNITGRKAMEQNVPSGTCVDNVPTSYGYDEFILSSRTPLIGTVRPCKYTILINDANWSKNEIMHLTYFRAFGHQVSYKPPSVPDVLYAAENLAKRGRNNYKIHQRHVNLQAVENSIIGDHSELINEDMREELAAAIVDHMSVAMNGMTISKRNFWA | not soluble
MAHHHHHHMYEKTHVTTYPVMGCQISVGTTASRRSKGLNATRSGVDGALTSGTVDGRDPKSTGADNSVSLAYAVPAVKPVTYNDYRGFQVTMVNGTLAKINNICRWLDTALDKREKNGGWCMDVLAESVSSGKMETSFYCESIVQASHHVTHYCGQERANGVEYFAEVHSQQVFEKSAVSRTFDCPSAKFVYNSRFEEIPRQSDITTTQLNKETSDSGIPNGREAMIRYSPTSSEDGGRLNE | not soluble
GFPSPAADYVEQRIDLNQLLIQHPSATYFVKASGDSMIDGGISDGDLLIVDSAITASHGDIVIAAVDGEFTVKKLQLRPTVQLIPMNSAYSPITISSEDTLDVFGVVIHVVKAATR | soluble
MSLSWYEEWFWSDAYTRVYDHRDDAEAEQLVDLIEHEIAPASGAHILDIGCGRGRHARALVRRGWQVTGLDLSEDAVAAARSRVADDDLDVRASFRVGDMRTPVCDGCADGVVNLFTSFGYFDADAENERALAAMATALRPGGWFLQDFLNAPQVAESLGASVYETEDGRTIHQDRWIEDGRVNKKITVRQNGHTETFQESVRLYTRSDLTAMYERVGLEVVALFGDYDGGNYVPDESPRLLLHAVRPTEGHHHHHH | soluble
MHVFYSEERRGNLLILREGEVKHFRVRRIEKDEEFGVIHEGKIYVCKVRREDKREISCEIVEELETKLPPKDITLYQSVTVDLKTMDTIVRQATELGVLTFVPIISERSFQKEEAILKKTEKWKRIVIEAMKQSRRPIPMEIKKPVRLSDLIPESEENIILDNFYEGVKPKDVNLEAKTYSVVVGPEGGFSKRESQILREKGFKSVLLEPYTLRTETAVVSIVSILMNFLEHHHHHH | soluble
MSLKKALFLILDQYADWEGVYLASALNQREDWSVHTVSLDPIVSSIGGFKTSVDYIIGLEPANFNLLVMIGGDSWSNDNKKLLHFVKTAFQKNIPIAAICGAVDFLAKNGLLNNHSHTGNFVYLWKDYKQYKPISSFVEKQAVRDKNLVTANGTAPIEFTNLILEMIDFDTPENIEKMMYMNRYGFYHFCDKYGNPFVEGHHHHHH | soluble
MCTGIKIISKTNDIFYGRTMDFTFDFFGNEDPIAPKIPTLIAQFPKGTVLNSQLNPWTAKYAFMGLAMSGTDQPANDGKTVSLAITDGINEAGLSGDIQYLMESSTAPAESLADRGLTPHIAEEVLAYILSNFESVDEVKVAFEKIGLLDQKFQLDSLGEVHFTLHWTINDKNNNSIVLQPTDNGAFVIYDSIGVVTNSPEYNYHLTNARNYIGMRNYAIKEPYTLKSGATLDPIEGGTSYGLLGIPGDFTSPSRFIRALYYSDNLQEFDSSEGIMQLYRAFQTVMIPRGIGHLGQSNSLSDFTHYWSGYDVTNLTMYVQPESTTSFTKYTLDPALTEVTTFAVSNELLLTDLNQ | not soluble
MGGGGHGGGITYKGVTVHTPKTWHTVTGKGLCAVMWFWILYRAKQDGPVVMGWRHPWDGHGDHGHGDHH | not soluble
METSDERLAGAAAEGDRGAFALLVERHYDRIFGLSWRLTGSRTEAEDLAQDICAALPMKLRGWRGEARFTTWLYRVVVNASHDLRRRQSAHSRAAAGWGDWELARQDEIGEARAAEEWLAAAMTALPVELRDTVALVLGEEMTQAEAGAVLGLAEGTVAWRMSEVKKRLRAMALREARA | not soluble
